Assay [1] has as its target T1, cynomolgus monkey C-KIT-Fc (cynomolgus monkey).
T1 construct: also called cyno C-KIT-Fc
The experiment in a line: HTRF competition vs Tb-h37M IgG1.
Method: Reagents were added sequentially into 384-well low-volume black plates (Nunc).

Assay [2] concerns the target T2, hTWEAK-Fc (human, UniProt O43508).
T2 construct: Fc fusion; member of the panel m9
T2 sequence (looked up): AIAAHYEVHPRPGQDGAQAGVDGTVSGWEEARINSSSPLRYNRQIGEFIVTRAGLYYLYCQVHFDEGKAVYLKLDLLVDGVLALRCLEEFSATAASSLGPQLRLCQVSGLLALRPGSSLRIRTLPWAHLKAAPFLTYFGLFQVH
The experiment in a line: direct ELISA on coated protein, IgG1. (In general: An ELISA detects its analyte on a solid surface through an enzyme-linked reagent.)

Assay [3] deals with T3, hDR3-Fc (human, UniProt Q93038).
T3 construct: Fc fusion; member of the panel m9
T3 sequence (looked up): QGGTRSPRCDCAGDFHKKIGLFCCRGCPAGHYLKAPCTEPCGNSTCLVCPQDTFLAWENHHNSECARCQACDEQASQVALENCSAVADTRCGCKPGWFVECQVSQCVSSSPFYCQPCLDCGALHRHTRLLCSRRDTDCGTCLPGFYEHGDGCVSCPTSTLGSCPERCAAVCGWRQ
The assay can be described thus: direct ELISA on coated protein, IgG1.

For assay [4], the target named is T4, hBAFFR-Fc (human, UniProt Q96RJ3).
T4 construct: Fc fusion; member of the panel m9
The assay can be described thus: direct ELISA on coated protein, IgG1.

Assay [5] has as its target T5, hVCAM-1 (human, UniProt P19320).
T5 construct: purified recombinant protein; member of the panel m9
T5 sequence (looked up): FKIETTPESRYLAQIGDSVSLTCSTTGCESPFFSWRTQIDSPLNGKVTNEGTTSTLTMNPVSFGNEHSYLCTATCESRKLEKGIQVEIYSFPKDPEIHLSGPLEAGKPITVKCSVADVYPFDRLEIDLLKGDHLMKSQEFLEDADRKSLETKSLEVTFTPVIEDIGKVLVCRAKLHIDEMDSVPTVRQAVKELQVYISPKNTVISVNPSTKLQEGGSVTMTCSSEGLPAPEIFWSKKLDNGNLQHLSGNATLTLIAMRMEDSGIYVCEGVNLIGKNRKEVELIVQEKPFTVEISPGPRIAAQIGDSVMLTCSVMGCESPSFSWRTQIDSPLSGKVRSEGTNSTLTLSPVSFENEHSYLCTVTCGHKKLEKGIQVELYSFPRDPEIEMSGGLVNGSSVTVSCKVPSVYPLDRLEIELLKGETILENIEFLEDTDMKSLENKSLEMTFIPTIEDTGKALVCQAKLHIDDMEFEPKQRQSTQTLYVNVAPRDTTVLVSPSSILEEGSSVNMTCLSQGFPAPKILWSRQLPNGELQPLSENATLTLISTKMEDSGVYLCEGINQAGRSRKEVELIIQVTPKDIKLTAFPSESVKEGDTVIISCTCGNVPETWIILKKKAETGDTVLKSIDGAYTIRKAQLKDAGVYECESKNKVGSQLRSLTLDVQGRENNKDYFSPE
The experiment in a line: direct ELISA on coated protein, IgG1.

In assay [6] the target is T6, hVCAM-Fc.
T6 construct: member of the panel m9
T6 chain: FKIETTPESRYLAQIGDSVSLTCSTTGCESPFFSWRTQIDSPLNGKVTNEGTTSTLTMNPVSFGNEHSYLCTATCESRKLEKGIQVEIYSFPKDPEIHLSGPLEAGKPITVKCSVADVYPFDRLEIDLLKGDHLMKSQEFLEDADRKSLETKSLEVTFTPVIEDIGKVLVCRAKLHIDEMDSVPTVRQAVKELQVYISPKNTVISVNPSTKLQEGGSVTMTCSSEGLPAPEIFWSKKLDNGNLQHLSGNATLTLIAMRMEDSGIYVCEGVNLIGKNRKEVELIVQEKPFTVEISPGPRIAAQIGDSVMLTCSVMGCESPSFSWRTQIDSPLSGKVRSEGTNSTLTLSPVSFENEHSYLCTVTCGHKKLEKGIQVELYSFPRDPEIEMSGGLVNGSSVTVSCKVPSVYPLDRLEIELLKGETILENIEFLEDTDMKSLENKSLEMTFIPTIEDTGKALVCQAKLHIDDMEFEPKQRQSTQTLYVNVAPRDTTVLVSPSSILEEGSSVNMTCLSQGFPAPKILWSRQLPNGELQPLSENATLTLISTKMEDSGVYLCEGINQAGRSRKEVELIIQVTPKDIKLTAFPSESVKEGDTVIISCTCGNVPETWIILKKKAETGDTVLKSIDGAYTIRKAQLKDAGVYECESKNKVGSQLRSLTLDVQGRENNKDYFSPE
The assay can be described thus: direct ELISA on coated protein, IgG1.

Assay [7] addresses T7, hOX40-Fc.
T7 construct: member of the panel m9
T7 chain: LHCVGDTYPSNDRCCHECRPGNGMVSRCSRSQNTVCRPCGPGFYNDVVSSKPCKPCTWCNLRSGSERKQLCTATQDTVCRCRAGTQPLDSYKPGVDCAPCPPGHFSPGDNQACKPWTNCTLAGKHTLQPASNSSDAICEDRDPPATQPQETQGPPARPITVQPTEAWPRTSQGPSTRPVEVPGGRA
The assay can be described thus: direct ELISA on coated protein, IgG1.

Assay [8] concerns the target T8, MS4A1 (human, UniProt P11836).
T8 construct: expressed in transfected HEK293 cells; also called CD20
T8 sequence (looked up): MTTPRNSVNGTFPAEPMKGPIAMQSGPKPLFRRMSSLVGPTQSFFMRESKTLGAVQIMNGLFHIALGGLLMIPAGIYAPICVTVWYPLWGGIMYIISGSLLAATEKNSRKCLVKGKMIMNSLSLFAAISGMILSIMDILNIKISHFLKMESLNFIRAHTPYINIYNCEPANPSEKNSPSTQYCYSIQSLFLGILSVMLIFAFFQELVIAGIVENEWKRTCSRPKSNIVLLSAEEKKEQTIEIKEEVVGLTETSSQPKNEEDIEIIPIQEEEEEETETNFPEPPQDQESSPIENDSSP
The experiment in a line: cell array, transfected fixed HEK293 cells.
Method: (§1) Transfection of all plasmids was confirmed by screening for the co-encoded marker ZS green (FIG. 13A).
(§2) Primary hits (duplicate spots) were identified by analysing fluorescence (AF647 and ZsGreenl) on ImageQuant. Vectors encoding all hits were sequenced to confirm their correct identities. […] Slides were analysed as above.

Assay [9] has as its target T9, DES (human, UniProt P17661).
T9 construct: expressed in transfected HEK293 cells
The experiment in a line: cell array, transfected fixed HEK293 cells.
Method: as §1, §2

In assay [10] the target is T10, EGFR (human, UniProt P00533).
T10 construct: expressed in transfected HEK293 cells
The experiment in a line: cell array, transfected fixed HEK293 cells.
Method: as §1, §2

The target in assay [11] is T11, EDN2 (human, UniProt P20800).
T11 construct: expressed in transfected HEK293 cells
T11 sequence (looked up): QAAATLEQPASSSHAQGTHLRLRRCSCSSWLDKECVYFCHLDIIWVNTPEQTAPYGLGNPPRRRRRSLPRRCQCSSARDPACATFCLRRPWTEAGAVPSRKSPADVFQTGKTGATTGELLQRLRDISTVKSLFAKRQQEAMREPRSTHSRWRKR
The assay can be described thus: cell array, transfected fixed HEK293 cells.
Method: as §1, §2

In assay [12] the target is T12, EDN1 (human, UniProt P05305).
T12 construct: expressed in transfected HEK293 cells
T12 sequence (looked up): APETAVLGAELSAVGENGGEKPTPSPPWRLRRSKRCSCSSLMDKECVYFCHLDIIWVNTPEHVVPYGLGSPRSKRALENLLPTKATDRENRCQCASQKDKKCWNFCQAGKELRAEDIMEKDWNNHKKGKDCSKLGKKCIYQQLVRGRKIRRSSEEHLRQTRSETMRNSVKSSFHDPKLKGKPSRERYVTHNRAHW
The experiment in a line: cell array, transfected fixed HEK293 cells.
Method: as §1, §2

T9 sequence (P17661 2-470 limits assumed): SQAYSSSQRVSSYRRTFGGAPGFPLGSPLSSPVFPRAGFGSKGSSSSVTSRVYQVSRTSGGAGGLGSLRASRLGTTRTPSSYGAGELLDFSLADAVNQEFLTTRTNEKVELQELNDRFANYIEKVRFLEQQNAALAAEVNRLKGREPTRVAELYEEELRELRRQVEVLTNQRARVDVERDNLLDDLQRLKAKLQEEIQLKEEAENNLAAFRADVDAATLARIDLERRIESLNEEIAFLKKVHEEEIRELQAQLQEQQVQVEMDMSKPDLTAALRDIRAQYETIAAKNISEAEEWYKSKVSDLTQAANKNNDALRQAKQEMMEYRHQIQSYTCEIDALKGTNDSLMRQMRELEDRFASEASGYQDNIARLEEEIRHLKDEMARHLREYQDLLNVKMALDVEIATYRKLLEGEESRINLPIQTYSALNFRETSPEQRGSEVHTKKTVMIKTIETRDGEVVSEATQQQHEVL
T4 sequence (Q96RJ3 7-71 limits assumed): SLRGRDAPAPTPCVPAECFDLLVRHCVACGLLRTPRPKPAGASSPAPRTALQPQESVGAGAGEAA

B1: MH5, human IgG1 (antibody, V domains shown)
VH: QVQLVQSGAEVKKPGASVKVSCKASGYTFTDYYMNWVRQAPGQGLEWMGRIYPGSGNTYYAQKFQGRVTMTRDTSTSTVYMELSSLRSEDTAVYYCARGVYYYDYWGQGTLVTVSS
VL: DIQMTQSPSSLSASVGDRVTITCRASQGIRTNLAWFQQKPGKAPKSLIYSASSLQSGVPSRFSGSGSGTDFTLTISSLQPEDFATYYCQQYANYPRTFGGGTKVEIK
notes: IgG1; also called C-KIT-MH5; C-KIT-MHS
Take B1: the IC50 in [1] amounted to 0.036 µg/mL.

B2: MH1, human IgG1 (antibody, V domains shown)
VH: QVQLVQSGAEVKKPGASVKVSCKASGYTFTDYYMNWVRQAPGQGLEWMGRIYPGSGNTYYAQKFQGRVTMTRDTSTSTVYMELSSLRSEDTAVYYCARGVYYYDYWGQGTLVTVSS
VL: DIQMTQSPSSLSASVGDRVTITCRASQGIRTNLAWFQQKPGKAPKSLIYAASSLQSGVPSRFSGSGSGTDFTLTISSLQPEDFATYYCQQYNSYPRTFGGGTKVEIK
notes: IgG1; also called IgG1-MH1
Take B2: the binding result in assay [2], in assay [3], in assay [4], in [5], in [6] and in assay [7] was “no binding (tested: 1 µg/ml)” throughout.

B3: humanized h37M, human IgG1 (antibody, V domains shown)
VH: QVQLVQSGAEVKKPGASVKLSCKASGYTFTDYYINWVRQAPGKGLEWIARIYPGSGNTYYNEKFKGRATLTADKSTSTAYMQLSSLRSEDTAVYFCARGVYYFDYWGQGTTVTVSS
VL: DIVMTQSPSSLSASVGDRVTITCKASQNVRTNVAWYQQKPGKAPKALIYSASYRYSGVPDRFTGSGSGTDFTLTISSLQPEDFADYFCQQYNSYPRTFGGGTKVEIK
notes: human IgG1; terbium-labelled as the tracer of the HTRF assays; also called C-KIT-h37M; h37M-IgG1
In the case of B3, the binding result in [8], in [9], in assay [10], in assay [11] and in assay [12] was “no binding (tested: 2 µg/ml)” throughout.

For orientation: IC50 means the concentration at which inhibition is half-maximal.

For the origin of these results see patent US20200283521A1 (GRANULAR THERAPEUTICS, published 2020).
